From FireProtDB

B1: L7I|R17V|V49I|Q165D|V217M|Q222G|K234H|P283A, Q88HV5 (parent)
chain: MPFQQGLLATPVPAHARHLFFTLQSPEALPAALDALLPQVDGKQLLLGVGAPLAKALGREIPGLRPFPLLDAAVENPSTQHALWLWLRGDERGDLLLRTQALEQALAPALSLADSVDGFLHRGGHDLTGYEDGTENPTDEEAVQAAIAADGSSFAAFQLWKHDLQYFKSLPQADQDNIIGRRLSDNEELDDAPASAHVKRTAQESFEPEAFMVRRSVSWADQRGAGLAFVALGKSFEAFEVQLRRMSGLEDGIIDGLYRFSRPLTGGYYWCPPMSETGVDLSPLLRA

Variants of: B1
Conditions: Pseudomonas putida (strain ATCC 47054 / DSM 6125 / CFBP 8728 / NCIMB 11950 / KT2440); pH 7.6; Fluorescence spectroscopy; whole UniProt chain shown

| Variant | Tm |
| --- | --- |
| MPFQQGILATPVPAHAVHLFFTLQSPEALPAALDALLPQVDGKQLLLGIGAPLAKALGREIPGLRPFPLLDAAVENPSTQHALWLWLRGDERGDLLLRTQALEQALAPALSLADSVDGFLHRGGHDLTGYEDGTENPTDEEAVQAAIAADGSSFAAFQLWKHDLDYFKSLPQADQDNIIGRRLSDNEELDDAPASAHVKRTAQESFEPEAFMVRRSMSWADGRGAGLAFVALGHSFEAFEVQLRRMSGLEDGIIDGLYRFSRPLTGGYYWCPPMSETGVDLSALLRA [L7I R17V V49I Q165D V217M Q222G K234H P283A] | 73 °C |
| MPFQQGLLLTPVPAHARHLFFTLQFPEALPAALDALLPQVDGKQLLLGVGAPLVKALGREIPGLRPFPLLDAAVENPSTQHALWLWLRGDDRGELLLRTQALEQALAPAFSLADSVDAFRHRGGRDLTGYEDGTENPTGEEAVQAAIALDGSSFAAFQLWKHDLQYFKALPQADQDNIIGRRLSDNEELDDAPASAHVKRTAQESFEPEAFMVRRSMPWADGRGAGLAFVAFGKSFDAFEVQLRRMSGLEDGIIDGLYRFSRPLTGGYYWCPPMSETGLDLSPLLRA [A9L S25F A54V E91D D94E L110F G118A L120R H125R D139G A149L S169A V217M S218P Q222G L232F E237D V279L] | 70 °C |
| MPFQQGILATPVPAHAVHLFFTLQSPEALPAALDALLPQVDGKQLLLGIGAPLAKALGREIPGLRPFPLLDAAVENPSTQHALWLWLRGDERGDLLLRTQALEQALAPALSLADSVDGFLHRGGHDLTGYEDGTENPTDEEAVQAAIAADGSSFAAFQLWKHDLDYFKSLPQADQDNIIGRRLSDNEELDDAPASAHVKRTAQESFEPEAFMVRRSMSWADQRGAGLAFVALGHSFDAFEVQLRRMSGLEDGIIDGLYRFSRPLTGGYYWCPPMSETGVDLSALLRA [L7I R17V V49I Q165D V217M K234H E237D P283A] | 68 °C |
| MPFQQGLLLTPVPAHARHLFFTLQFPEALPAALDALLPQVDGKQLLLGVGAPLVKALGREIPGLRPFPLLDAAVENPSTQHALWLWLRGDDRGELLLRTRALEQALAPAFSLADSVDAFRHRGGRDLTGYEDGTENPTGEEAVQAAIALDGSSFAAFQLWKHDLQYFKSLPQADQDNIIGRRLSDNEELDDAPASAHVKRTAQESFEPEAFMVRRSMPWADGRGAGLAFVAFGKSFDAFEVQLRRMSGLEDGIIDGLYRFSRPLTGGYYWCPPMSETGVDLSPLLRA [A9L S25F A54V E91D D94E Q100R L110F G118A L120R H125R D139G A149L V217M S218P Q222G L232F E237D] | 83 °C |
| MPFQQGLLLTPVPAHARHLFFTLQSPEALPAALDALLPQVDGKQLLLGVGAPLAKALGREIPGLRPFPLLDAAVENPSTQHALWLWLRGDDRGELLLRTRALEQALAPAFSLADSVDAFRHRGGRDLTGYEDGTENPTGEEAVQAAIALDGSSFVAFQLWKHDLQYFKALPQADQDNIIGRRLSDNEELDDAPASAHVKRTAQESFEPEAFMVRRSMPWADGRGAGLAFVAFGKSFEAFEVQLRRMSGLEDGIIDGLYRFSRPLTGGYYWCPPMSETGLDLSPLLRA [A9L E91D D94E Q100R L110F G118A L120R H125R D139G A149L A155V S169A V217M S218P Q222G L232F V279L] | 69 °C |
| MPFQQGLLLTPVPAHARHLFFTLQFPEALPAALDALLPQVDGKQLLLGVGAPLAKALGREIPGLRPFPLLDAAVENPSTQHALWLWLRGDERGDLLLRTQALEQALAPALSLADSVDGFLHRGGHDLTGYEDGTENPTGEEAVQAAIALDGSSFVAFQLWKHDLQYFKSLPQADQDNIIGRRLSDNEELDDAPASAHVKRTAQESFEPEAFMVRRSVSWADQRGAGLAFVALGKSFEAFEVQLRRMSGLEDGIIDGLYRFSRPLTGGYYWCPPMSETGVDLSPLLRA [A9L S25F D139G A149L A155V] | 68 °C |
| MPFQQGLLLTPVPAHARHLFFTLQFPEALPAALDALLPQVDGKQLLLGVGAPLVKALGREIPGLRPFPLLDAAVENPSTQHALWLWLRGDERGELLLRTRALEQALAPAFSLADSVDGFLHRGGHDLTGYEDGTENPTDEEAVQAAIALDGSSFVAFQLWKHDLQYFKSLPQADQDNIIGRRLSDNEELDDAPASAHVKRTAQESFEPEAFMVRRSMPWADGRGAGLAFVALGKSFEAFEVQLRRMSGLEDGIIDGLYRFSRPLTGGYYWCPPMSETGVDLSPLLRA [A9L S25F A54V D94E Q100R L110F A149L A155V V217M S218P Q222G] | 66 °C |
| MPFQQGLLLTPVPAHARHLFFTLQFPEALPAALDALLPQVDGKQLLLGVGAPLVKALGREIPGLRPFPLLDAAVENPSTQHALWLWLRGDERGDLLLRTQALEQALAPALSLADSVDGFLHRGGHDLTGYEDGTENPTGEEAVQAAIAADGSSFAAFQLWKHDLQYFKALPQAEQDNIIGRRLSDNEELDDAPASAHVKRTAQESFEPEAFMVRRSVSWADQRGAGLAFVALGKSFDAFEVQLRRMSGLEDGIIDGLYRFSRPLTGGYYWCPPMSETGVDLSPLLRA [A9L S25F A54V D139G S169A D174E E237D] | 65 °C |
| MPFQQGLLLTPVPAHARHLFFTLQSPEALPAALDALLPQVDGKQLLLGVGAPLAKALGREIPGLRPFPLLDAAVENPSTQHALWLWLRGDERGDLLLRTRALEQALAPAFSLADSVDAFRHRGGRDLTGYEDGTENPTGEEAVQAAIAADGSSFAAFQLWKHDLQYFKSLPQADQDNIIGRRLSDNEELDDAPASAHVKRTAQESFEPEAFMVRRSVSWADQRGAGLAFVAFGKSFEAFEVQLRRMSGLEDGIIDGLYRFSRPLTGGYYWCPPMSETGLDLSPLLRA [A9L Q100R L110F G118A L120R H125R D139G L232F V279L] | 74 °C |
| MPFQQGLLLTPVPAHARHLFFTLQFPEALPAALDALLPQVDGKQLLLGVGAPLVKALGREIPGLRPFPLLDAAVENPSTQHALWLWLRGDERGDLLLRTQALEQALAPALSLADSVDGFLHRGGHDLTGYEDGTENPTDEEAVQAAIALDGSSFAAFQLWKHDLQYFKSLPQADQDNIIGRRLSDNEELDDAPASAHVKRTAQESFEPEAFMVRRSMPWADGRGAGLAFVAFGKSFDAFEVQLRRMSGLEDGIIDGLYRFSRPLTGGYYWCPPMSETGVDLSPLLRA [A9L S25F A54V A149L V217M S218P Q222G L232F E237D] | 66 °C |
| MPFQQGLLLTPVPAHARHLFFTLQFPEALPAALDALLPQVDGKQLLLGVGAPLVKALGREIPGLRPFPLLDAAVENPSTQHALWLWLRGDDRGELLLRTRALEQALAPAFSLADSVDAFRHRGGRDLTGYEDGTENPTGEEAVQAAIALDGSSFVAFQLWKHDLQYFKALPQAEQDNIIGRRLSDNEELDDAPASAHVKRTAQESFEPEAFMVRRSMPWADGRGAGLAFVAFGKSFDAFEVQLRRMSGLEDGIIDGLYRFSRPLTGGYYWCPPMSETGLDLSPLLRA [A9L S25F A54V E91D D94E Q100R L110F G118A L120R H125R D139G A149L A155V S169A D174E V217M S218P Q222G L232F E237D V279L] | 74 °C |
